One molecule from patent US10603364B2, “Lysosomal targeting and uses thereof” (Shire Human Genetic Therapies, Inc., priority 2014, dated 2020) can be followed below.

In data set [1] the test system is Naglu KO mice. The data set can be described thus: Sanfillipo B specific biomarkers in brain by LC/MS. The class given is in vivo. The note with it: intrathecal, 520 mg/kg brain, especially 2× weekly and 3× weekly. How it is done: (§1) To evaluate the in vivo activity of Naglu-SPP and its efficacy as a therapeutic for the treatment of lysosomal storage diseases, particularly San B, Naglu-SPP was administered to Naglu KO mice via intrathecal injection. Intrathecal administration of Naglu-IGFII served as a positive control. The experimental conditions used for this assay are described in Tables 10 and 11 below.
Using the same LC/MS technology as used for the quantification of heparin sulfate (see above), the presence of Sanfillipo B specific biomarkers in brains of treated KO mice were evaluated. Naglu deficiency causes the accumulation of certain heparin sulfate degradation products (presented in FIGS. 13A-C) which are natural substrates of Naglu. These biomarkers are the most relevant indications for Naglu deficiency.

In data set [2] the target is T1, recombinant 6×Histidine tagged human SORT1 (Homo sapiens, UniProt Q99523).
T1 sequence (Q99523 78-831): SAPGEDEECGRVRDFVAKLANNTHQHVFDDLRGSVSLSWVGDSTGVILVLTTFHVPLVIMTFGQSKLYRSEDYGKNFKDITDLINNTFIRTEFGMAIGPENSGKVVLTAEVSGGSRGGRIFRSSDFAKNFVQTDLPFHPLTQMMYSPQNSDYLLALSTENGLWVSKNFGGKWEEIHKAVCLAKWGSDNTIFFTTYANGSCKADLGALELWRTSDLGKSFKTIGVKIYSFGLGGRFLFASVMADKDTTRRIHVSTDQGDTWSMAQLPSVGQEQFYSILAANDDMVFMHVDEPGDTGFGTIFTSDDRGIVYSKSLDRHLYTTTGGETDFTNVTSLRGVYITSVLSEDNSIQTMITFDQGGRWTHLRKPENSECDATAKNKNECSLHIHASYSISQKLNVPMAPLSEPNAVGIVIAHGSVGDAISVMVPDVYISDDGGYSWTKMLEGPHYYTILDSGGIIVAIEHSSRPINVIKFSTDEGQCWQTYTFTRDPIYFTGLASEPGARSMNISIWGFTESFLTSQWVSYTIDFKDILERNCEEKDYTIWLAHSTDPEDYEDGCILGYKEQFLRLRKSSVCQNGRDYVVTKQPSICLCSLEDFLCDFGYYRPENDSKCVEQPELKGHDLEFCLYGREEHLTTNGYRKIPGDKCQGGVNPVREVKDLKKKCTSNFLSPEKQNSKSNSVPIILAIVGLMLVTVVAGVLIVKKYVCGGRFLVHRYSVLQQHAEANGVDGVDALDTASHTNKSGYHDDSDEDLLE
Briefly: Surface plasmone resonance binding of Naglu-SPP to SORT1. How it is done: Studies were also carried out to determine the binding properties of Naglu-SPP and evaluate its specificity for SORT1 by surface plasmone resonance (SPR), a commonly used standard technique. Briefly, anti-His mAb (capturing molecule) was diluted in immobilization buffer and bound on the dextran surface of a SPR sensor chip housed in a microfluidic system. Next, a solution containing recombinant 6×Histidine tagged human SORT1 (ligand) was injected into the microflow system and run over the surface-bound anti-His mAbs to form a “capture complex.” A solution containing purified Naglu-SPP protein (analyte) was then injected into the device. As the solution moved over the SPR sensor chip, the analyte bound to the capture complex and an increase in SPR signal (expressed in response units, RU) was observed. Finally, a solution without analyte was injected into the microfluidic device to detach bound […] from the capture complex, resulting in a decrease in SPR signal. The detailed experimental conditions are described in Table 6 below.

Data set [3] concerns Naglu KO mice. Briefly: Total glycosaminoglycan (GAG) in liver and brain, dimethylmethylene blue. The class given is in vivo. Conditions: intrathecal, 520 mg/kg brain; brain significant in 2× and 3× weekly groups. How it is done:
as §1
The activity of Naglu-SPP and Naglu-IGFII in vivo was also evaluated by examining the intracellular accumulation of natural substrates of Naglu in treated mice. One such assay was designed to evaluate the total concentration of glycosaminoglycan (GAG) in liver (FIG. 11A) and brain (FIG. 11B) tissue of treated mice in accordance with de Jong et al. (Clin Chem 38(6):803-807, 1992). Briefly, liver tissue was homogenized and total GAG quantified using dimethylmethylene blue. Brain tissue was homogenized and then incubated with pronase and benzonase to break down protein and nucleic acid. Total GAG was then extracted by passing the brain homogenate through a DEAE column. The eluate was further buffer exchanged through a desalting column, and the total GAG content was quantified using dimethylmethylene blue. […] The reduction of total GAG amount in brain tissue was significant in the 2× weekly as well as the 3× weekly treatment groups.

Data set [4] concerns SORT overexpressing cells. Briefly: Immunofluorescence microscopy of cellular entry and lysosomal targeting (Naglu / Lamp-1). Format: cell-based. How it is done: Studies were carried out using immunofluorescence microscopy to evaluate cellular entry and lysosomal targeting. For these studies, SORT overexpressing cells were treated with vehicle control or Naglu-SPP and then fixed and prepared for staining. Both vehicle control (FIG. 6A) and Naglu-SPP (FIG. 6B) treated cells were stained using antibodies specific for human Naglu and Lamp-1, a lysosome-specific protein biomarker.

The subject of another data set is wild-type rats. The data set can be described thus: Naglu enzyme activity in liver and brain after intrathecal administration (biodistribution). The class given is in vivo. The note with it: 385 ug/animal. How it is done: To evaluate biodistribution of the SORT1-binding Naglu fusion proteins, an in vivo study was conducted using wild-type rats subjected to intrathecal administration of vehicle control (PBS), rhNaglu, Naglu-IGFII, Naglu-SPP, Naglu-SapDC or Naglu-tPRGN. Details of the experimental design are provide in Table 9 below. Previous experiments had shown that Naglu-IGFII but not rhNaglu penetrates into brain tissue and is targeted to lysosomes after intrathecal injection. Accordingly, rhNaglu and Naglu-IGFII were utilized in this study as negative and positive controls, respectively.
Rats were sacrificed either 4 or 24 hours post intrathecal administration of the respective fusion protein and total Naglu enzyme activity in the animals' liver and brain tissue was determined using a well-established enzyme activity assay (FIGS. 7A and B). Briefly, brain and liver tissue homogenates were prepared and incubated in the presence of a Naglu specific substrate, i.e., methylumbelliferyl-N-acetyl-α-D-glucosainide; accumulation of cleavage product was then measured by examining fluorescence intensity at 360/460 nm (excitation/emission) using a fluorescent plate reader.

Data set [5] has as its system Naglu KO mice. The data set can be described thus: Immunohistochemical staining of Lamp-1, GFAP and Iba-1 in brain and liver. The class given is in vivo. The note with it: intrathecal. How it is done:
as §1
The lysosomal targeting of Naglu-SPP and Naglu-IGFII was further examined by immunohistochemical analysis. Tissue samples were collected, fixed in 10% NBF and processed for paraffin embedding. For each tissue assayed, 5 μm paraffin sections was subjected to immunostaining using antibodies against lamp lysosomal associated membrane protein 1 (Lamp-1), glial fibrillary acidic protein (GFAP) and the ionized calcium-binding adapter molecule 1 (Iba-1).

The subject of data set [6] is SORT1 overexpressing cells. The data set can be described thus: Cellular uptake in Sortilin overexpressing cells (intracellular Naglu enzyme activity). Format: cell-based. The note with it: absence of Neurotensin. How it is done:
A cell line was established overexpressing SORT1, using standard technologies known in the art. […] After a specified period of time, the supernatant was removed and the cells were washed repeatedly. Then, cells were lysed and each sample was assayed for Naglu enzyme activity.

B1: Naglu-SPP: Fusion protein of human Naglu and SORT1 propeptide (SPP) via GAG3 linker; SEQ ID NO:17 (full-length), SEQ ID NO:22 (protein)
chain: MEAVAVAAAVGVLLLAGAGGAAGDEAREAAAVRALVARLLGPGPAADFSVSVERALAAKPGLDTYSLGGGGAARVRVRGSTGVAAAAGLHRYLRDFCGCHVAWSGSQLRLPRPLPAVPGELTEATPNRYRYYQNVCTQSYSFVWWDWARWEREIDWMALNGINLALAWSGQEAIWQRVYLALGLTQAEINEFFTGPAFLAWGRMGNLHTWDGPLPPSWHIKQLYLQHRVLDQMRSFGMTPVLPAFAGHVPEAVTRVFPQVNVTKMGSWGHFNCSYSCSFLLAPEDPIFPIIGSLFLRELIKEFGTDHIYGADTFNEMQPPSSEPSYLAAATTAVYEAMTAVDTEAVWLLQGWLFQHQPQFWGPAQIRAVLGAVPRGRLLVLDLFAESQPVYTRTASFQGQPFIWCMLHNFGGNHGLFGALEAVNGGPEAARLFPNSTMVGTGMAPEGISQNEVVYSLMAELGWRKDPVPDLAAWVTSFAARRYGVSHPDAGAAWRLLLRSVYNCSGEACRGHNRSPLVRRPSLQMNTSIWYNRSDVFEAWRLLLTSAPSLATSPAFRYDLLDLTRQAVQELVSLYYEEARSAYLSKELASLLRAGGVLAYELLPALDEVLASDSRFLLGSWLEQARAAAVSEAEADFYEQNSRYQLTLWGPEGNILDYANKQLAGLVANYYTPRWRLFLEALVDSVAQGIPFQQHQFDKNVFQLEQAFVLSKQRYPSQPRGDTVDLAKKIFLKYYPRWVAGSWGAPGGGGGAAAAAGGGGGGAPGGGGGAAAAAGGGGGGAPGGGGGAAAAAGGGGGGAPQDRLDAPPPPAAPLPRWSGPIGVSWGLRAAAAGGAFPRGGRWRR
Turning to B1, the “accumulation of three GAG cleavage products (San B biomarkers) in brain” value in the data set with Naglu KO mice [1] was “dramatic decrease”. In data set [2] (SPR, Naglu-SPP 0 to 20 nM), the “average association constant (Ka)” value was “approximately 1.1×10^6 1/Ms” and the “dissociation constant (Kd)” value is listed as “approximately 7.1×10^−4 1/s”. The “binding to SORT1” value in data set [2] (all concentrations tested (0 to 20 nM)) was “strong binding”. Besides, in the data set with Naglu KO mice [3], the “total GAG concentration in liver and brain tissue vs vehicle control” value is recorded as “significant reduction”. For the same molecule, the “intracellular localization of Naglu fluorescence (co-localization with Lamp-1)” value in data set [4] was “localized predominantly within lysosomal vesicles”. Besides, the “rank of Naglu enzyme activity in brain among treatments” value in the data set on wild-type rats is “highest activity”. Moreover, the “Naglu enzyme activity in brain” value in the data set with wild-type rats (4 or 24 hours post dose) was “markedly elevated levels”. Also, the “Lamp-1 immunostaining in brain (cerebral cortex, cerebellum, thalamus, striatum, white matter)” value in the data set on Naglu KO mice [5] (2× weekly and 3× weekly) was “decrease”. Besides, the “Lamp-1 immunoreactivity in liver” value in the data set with Naglu KO mice [5] (three weekly deliveries) is on record as “reduced significantly”. In addition, in the data set on Naglu KO mice [5] (three weekly injections), the “GFAP staining in cerebral cortex and cerebellum (astrocytes)” value is “reduced signal”; the “Iba-1 staining in cerebral cortex and cerebellum (microglial cells)” value is “microglial cells are reduced in size and have a smaller number of processes”. Also, in data set [6], the Bmax of binding/uptake came out at 1260 nmol/h/mg and the “cellular internalization (intracellular Naglu activity)” value was “effectively internalized”.
